Results taken from the RNAGym collection of RNA variant scans (doi:10.7554/elife.80360).

B1: HDV Ribozyme (parent)
chain: GGCCGGCAUGGUCCCAGCCUCCUCGCUGGCGCCGGCUGGGCAACAUUCCGAGGGGACCGUCCCCUCGGUAAUGGCGAAUGGGACCCA

Variants of: B1
Test: self-cleavage, relative activity (ratio to wild type); higher = more cleavage; co-transcriptional

Compared with GGCCGGCAUGGUCCCAGCCUCCUCGCUGGCGCCGGCUGGGCCACAUGCCGAGGGGACCGUCCCCUCGGUAAUGGCGAAUGGGACCCA [A42C U47G], GGCCGGCAUGGUCCCAGCCUCCUCGCUGGCGCCGGCUGGGCCACAUUCCGAGGGGACCGUCCCCCCGGUAAUGGCGAAUGGGACCCA [A42C U65C] is higher in self-cleavage: 0.0594 for the first, 0.268 for the second.

Compared with GGCCGGCAUGGUCCCAGCCUCCUCGCUGGCGCCGGCUGGGCCACAUUCCGAGGGGACCGUCCCCUCGGUAAAGGCGAAUGGGACCCA [A42C U72A], GGCCGGCAUGGUCCCAGCCUCCUCGCUGGCGCCGGCUGGGCCACAUUCCGAGGGGACCGUCCCCUCGGUAAUGGCGAAAGGGACCCA [A42C U79A] is lower in self-cleavage: 0.266 for the first, 0.213 for the second.

Going from GGCCGGCAUGGUCCCAGCCUCCUCGCUGGCGCCGGCUGGGCCACAUUCCGAGGGGACCGUCCCCUCGGUAAUGGCGAACGGGACCCA [A42C U79C] to GGCCGGCAUGGUCCCAGCCUCCUCGCUGGCGCCGGCUGGGCGACCUUCCGAGGGGACCGUCCCCUCGGUAAUGGCGAAUGGGACCCA [A42G A45C], the self-cleavage rises from 0.124 to 0.399.

Compared with GGCCGGCAUGGUCCCAGCCUCCUCGCUGGCGCCGGCUGGGCGACAUUCCGAGGGGACCGUCCCCUCGGUCAUGGCGAAUGGGACCCA [A42G A70C], GGCCGGCAUGGUCCCAGCCUCCUCGCUGGCGCCGGCUGGGCGACAUUCCGAGGGGACCGUCCCCUCGGUGAUGGCGAAUGGGACCCA [A42G A70G] is lower in self-cleavage: 0.798 for the first, 0.623 for the second.

Compared with GGCCGGCAUGGUCCCAGCCUCCUCGCUGGCGCCGGCUGGGCGACAUUCCGAGGGGACCGUCCCCUCGGUAGUGGCGAAUGGGACCCA [A42G A71G], GGCCGGCAUGGUCCCAGCCUCCUCGCUGGCGCCGGCUGGGCGACAUUCCGAGGGGACCGUCCCCUCGGUAAUGGCGCAUGGGACCCA [A42G A77C] is lower in self-cleavage: 0.554 for the first, 0.0723 for the second.

Going from GGCCGGCAUGGUCCCAGCCUCCUCGCUGGCGCCGGCUGGGCGACAUUCCGAGGGGACCGUCCCCUCGGUAAUGGCGACUGGGACCCA [A42G A78C] to GGCCGGCAUGGUCCCAGCCUCCUCGCUGGCGCCGGCUGGGCGACAUUCCGAGGGGACCGUCCCCUCGGUAAUGGCGAAUGGGGCCCA [A42G A83G], the self-cleavage rises from 0.107 to 0.361.

Compared with GGCCGGCAUGGUCCCAGCCUCCUCGCUGGCGCCGGCUGGGCGACAUUCCGAGGGGACCGUCCCCUCGGUAAUGGCGAAUGGGACCCG [A42G A87G], GGCCGGCAUGGUCCCAGCCUCCUCGCUGGCGCCGGCUGGGCGAAAUUCCGAGGGGACCGUCCCCUCGGUAAUGGCGAAUGGGACCCA [A42G C44A] is lower in self-cleavage: 0.602 for the first, 0.536 for the second.

Going from GGCCGGCAUGGUCCCAGCCUCCUCGCUGGCGCCGGCUGGGCGACAUUACGAGGGGACCGUCCCCUCGGUAAUGGCGAAUGGGACCCA [A42G C48A] to GGCCGGCAUGGUCCCAGCCUCCUCGCUGGCGCCGGCUGGGCGACAUUGCGAGGGGACCGUCCCCUCGGUAAUGGCGAAUGGGACCCA [A42G C48G], the self-cleavage rises from 0.7 to 0.791.

Compared with GGCCGGCAUGGUCCCAGCCUCCUCGCUGGCGCCGGCUGGGCGACAUUCCGAGGGGAACGUCCCCUCGGUAAUGGCGAAUGGGACCCA [A42G C57A], GGCCGGCAUGGUCCCAGCCUCCUCGCUGGCGCCGGCUGGGCGACAUUCCGAGGGGACCGUACCCUCGGUAAUGGCGAAUGGGACCCA [A42G C61A] is higher in self-cleavage: 0.527 for the first, 0.779 for the second.

Going from GGCCGGCAUGGUCCCAGCCUCCUCGCUGGCGCCGGCUGGGCGACAUUCCGAGGGGACCGUCCCCUAGGUAAUGGCGAAUGGGACCCA [A42G C66A] to GGCCGGCAUGGUCCCAGCCUCCUCGCUGGCGCCGGCUGGGCGACAUUCCGAGGGGACCGUCCCCUGGGUAAUGGCGAAUGGGACCCA [A42G C66G], the self-cleavage falls from 0.702 to 0.538.

Going from GGCCGGCAUGGUCCCAGCCUCCUCGCUGGCGCCGGCUGGGCGACAUUCCGAGGGGACCGUCCCCUCGGUAAUGGUGAAUGGGACCCA [A42G C75U] to GGCCGGCAUGGUCCCAGCCUCCUCGCUGGCGCCGGCUGGGCGACAUUCCGAGGGGACCGUCCCCUCGGUAAUGGCGAAUGGGACGCA [A42G C85G], the self-cleavage rises from 0.397 to 0.522.

Going from GGCCGGCAUGGUCCCAGCCUCCUCGCUGGCGCCGGCUGGGCGACAUUCCCAGGGGACCGUCCCCUCGGUAAUGGCGAAUGGGACCCA [A42G G50C] to GGCCGGCAUGGUCCCAGCCUCCUCGCUGGCGCCGGCUGGGCGACAUUCCUAGGGGACCGUCCCCUCGGUAAUGGCGAAUGGGACCCA [A42G G50U], the self-cleavage rises from 0.287 to 0.542.

First: GGCCGGCAUGGUCCCAGCCUCCUCGCUGGCGCCGGCUGGGCGACAUUCCGACGGGACCGUCCCCUCGGUAAUGGCGAAUGGGACCCA [A42G G52C]
Second: GGCCGGCAUGGUCCCAGCCUCCUCGCUGGCGCCGGCUGGGCGACAUUCCGAGCGGACCGUCCCCUCGGUAAUGGCGAAUGGGACCCA [A42G G53C]
The self-cleavage of the first is higher: 0.733 for the first, 0.391 for the second.

Compared with GGCCGGCAUGGUCCCAGCCUCCUCGCUGGCGCCGGCUGGGCGACAUUCCGAGGUGACCGUCCCCUCGGUAAUGGCGAAUGGGACCCA [A42G G54U], GGCCGGCAUGGUCCCAGCCUCCUCGCUGGCGCCGGCUGGGCGACAUUCCGAGGGGACCAUCCCCUCGGUAAUGGCGAAUGGGACCCA [A42G G59A] is higher in self-cleavage: 0.502 for the first, 0.831 for the second.

First: GGCCGGCAUGGUCCCAGCCUCCUCGCUGGCGCCGGCUGGGCGACAUUCCGAGGGGACCGUCCCCUCAGUAAUGGCGAAUGGGACCCA [A42G G67A]
Second: GGCCGGCAUGGUCCCAGCCUCCUCGCUGGCGCCGGCUGGGCGACAUUCCGAGGGGACCGUCCCCUCGGUAAUGACGAAUGGGACCCA [A42G G74A]
The self-cleavage of the first is higher: 0.435 for the first, 0.0396 for the second.

First: GGCCGGCAUGGUCCCAGCCUCCUCGCUGGCGCCGGCUGGGCGACAUUCCGAGGGGACCGUCCCCUCGGUAAUGGCGAAUCGGACCCA [A42G G80C]
Second: GGCCGGCAUGGUCCCAGCCUCCUCGCUGGCGCCGGCUGGGCGACAUUCCGAGGGGACCGUCCCCUCGGUAAUGGCGAAUGGAACCCA [A42G G82A]
The self-cleavage of the first is higher: 0.364 for the first, 0.158 for the second.
